Measured values published in US8889126B2, “Methods and compositions for treating neuropathies” (Washington University, priority 2004, dated 2014).

Key:
DRG neuronal explant = test: vincristine-induced axonal degeneration in DRG neuronal explants; format: cell-based, mouse; settings: 0.5 μM vincristine for up to 9 d, lentiviral expression
Method: (§1) To identify the mechanism of delayed axonal degeneration mediated by the Wld^s protein, we employed an in-vitro Wallerian degeneration model. Primary DRG explant neurons were infected with lentivirus expressing the appropriate proteins, and axons were injured by either removal of the neuronal cell body (transection) or growth in vincristine (toxic).
Quantitative analysis of axonal degeneration was performed as previously described (Zhai, et al., Neuron 39:217-25, 2003). Briefly, the cultures were examined using phase contrast microscopy at the indicated times. Axons with a fragmented, non-refractile appearance were designated as “degenerated.” At each time point, at least 200 singly distinguishable axons were blindly scored from several randomly taken images of each culture. […] For calculations of neurite-covered area, digitally captured images from quadruplicate samples of two independent experiments were analyzed using analysis 3.1 software (Soft Imaging System, Lakewood, Colo.).
In addition to mechanical transection, axonal protection in wld^s mice is also observed against other damaging agents such as ischemia and toxins (Coleman, et al., Trends Neurosci 25:532-37, 2002; Gillingwater, et al., J Cereb Blood Flow Metab 24:62-66, 2004). […] FIG. 2C illustrates protein expression in lentivirus-infected cells detected by immunoblot analysis using antibodies to the 6×His tag. […]

DRG neurons = test: overall cellular NAD levels in DRG neurons by microscale enzymatic assays; format: cell-based; settings: NMNAT1 expressing vs wild type DRG neurons
Excerpt: Similarly, most enzymes that make up the NAD salvage pathway in yeast are also compartmentalized in the nucleus. […] Furthermore, levels of tissue NAD in the brains of wild type and wld^s mice are similar despite the increased levels of NMNAT activity in wld^s mice (Mack, et al., Nat Neurosci, 4:1199-206, 2001).

DRG explant neurons = test: in vitro Wallerian degeneration assay: DRG explant cultures, axonal transection by removal of neuronal cell bodies; format: cell-based, mouse; settings: lentivirus-infected DRG neurons
Method: as §1
Mouse DRG explants from E12.5 embryos were cultured in the presence of 1 nM nerve growth factor. Non-neuronal cells were removed from the cultures by adding 5-fluorouracil to the culture medium. Transection of neurites was performed at 10-20 DIV using an 18-gauge needle to remove the neuronal cell bodies. […]
Lentiviral expression vectors were generated using HEK293T cells as described above. […] These lysates were analyzed by immunoblot to using anti-His tag monoclonal antibody (Qiagen) to detect expression of the respective hexahistidine-tagged proteins. […]
Quantitative analysis of axonal degeneration was performed as previously described (Zhai, et al., Neuron 39:217-25, 2003). […] Axons with a fragmented, non-refractile appearance were designated as “degenerated.” At each time point, at least 200 singly distinguishable axons were blindly scored from several randomly taken images of each culture. […]
Cell culture, in vitro axotomy, and quantification of axonal degeneration. […] Quantitative analysis of neurite degeneration was performed.

| Molecule | axon length and refractility in vincristine (DRG neuronal explant) | overall cellular NAD levels (DRG neurons) | axonal degeneration after transection in neurons expressing the construct (DRG explant neurons) |
| --- | --- | --- | --- |
| NMNAT1: nicotinamide mononucleotide adenylyltransferase1, murine, lentivirally expressed (protein, UniProt Q9EPA7 1-285, looked up, lentivirally expressed) Nicotinamide/nicotinic acid …: MDSSKKTEVVLLACGSFNPITNMHLRLFELAKDYMHATGKYSVIKGIISPVGDAYKKKGLIPAHHRIIMAELATKNSHWVEVDTWESLQKEWVETVKVLRYHQEKLATGSCSYPQSSPALEKPGRKRKWADQKQDSSPQKPQEPKPTGVPKVKLLCGADLLESFSVPNLWKMEDITQIVANFGLICITRAGSDAQKFIYESDVLWRHQSNIHLVNEWITNDISSTKIRRALRRGQSIRYLVPDLVQEYIEKHELYNTESEGRNAGVTLAPLQRNAAEAKHNHSTL | maintained their original length and refractility | no changes in overall cellular NAD levels were found |  |
| NmPRT: nicotinamide phosphoribosyltransferase, expressed in neurons (protein, UniProt Q99KQ4 1-491, looked up) Nicotinamide …: MNAAAEAEFNILLATDSYKVTHYKQYPPNTSKVYSYFECREKKTENSKVRKVKYEETVFYGLQYILNKYLKGKVVTKEKIQEAKEVYREHFQDDVFNERGWNYILEKYDGHLPIEVKAVPEGSVIPRGNVLFTVENTDPECYWLTNWIETILVQSWYPITVATNSREQKKILAKYLLETSGNLDGLEYKLHDFGYRGVSSQETAGIGASAHLVNFKGTDTVAGIALIKKYYGTKDPVPGYSVPAAEHSTITAWGKDHEKDAFEHIVTQFSSVPVSVVSDSYDIYNACEKIWGEDLRHLIVSRSTEAPLIIRPDSGNPLDTVLKVLDILGKKFPVTENSKGYKLLPPYLRVIQGDGVDINTLQEIVEGMKQKKWSIENVSFGSGGALLQKLTRDLLNCSFKCSYVVTNGLGVNVFKDPVADPNKRSKKGRLSLHRTPAGNFVTLEEGKGDLEEYGHDLLHTVFKNGKVTKSYSFDEVRKNAQLNIEQDVAPH |  |  | shows axonal protection |
| dominant-negative Ufd2a mutant: Ufd2a containing a point mutation (P1140A) that inhibits wild-type Ufd2a function (protein, UniProt Q9ES00 1-1173, looked up, variant P1140A) Ubiquitin conjugation factor …: MEELSADEIRRRRLARLAGGQTSQPTTPLTSPQRENPPGPPIAASAPGPSQSLGLNVHNMTPATSPIGAAGVAHRSQSSEGVSSLSSSPSNSLETQSQSLSRSQSMDIDGVSCEKSMSQVDVDSGIENMEVDENDRREKRSLSDKEPSSGPEVSEEQALQLVCKIFRVSWKDRDRDVIFLSSLSAQFKQNPKEVFSDFKDLIGQILMEVLMMSTQTRDENPFASLTATSQPIATAARSPDRNLMLNTGSSSGTSPMFCNMGSFSTSSLSSLGASGGASNWDSYSDHFTIETCKETDMLNYLIECFDRVGIEEKKAPKMCSQPAVSQLLSNIRSQCISHTALVLQGSLTQPRSLQQPSFLVPYMLCRNLPYGFIQELVRTTHQDEEVFKQIFIPILQGLALAAKECSLESDYFKYPLMALGELCETKFGKTHPMCNLVASLPLWLPKSLSPGSGRELQRLSYLGAFFSFSVFAEDDAKVVEKYFSGPAITLENTRVVSQSLQHYLELGRQELFKILHSILLNGETREAALSYMAALVNANMKKAQMQADDRLVSTDGFMLNLLWVLQQLSTKIKLETVDPTYIFHPRCRITLPNDETRINATMEDVNERLTELYGDQPPFSEPKFPTECFFLTLHAHHLSILPSCRRYIRRLRAIRELNRTVEDLKNNESQWKDSPLATRHREMLKRCKTQLKKLVRCKACADAGLLDESFLRRCLNFYGLLIQLMLRILDPAYPDVTLPLNSEVPKVFAALPEFYVEDVAEFLFFIVQYSPQVLYEPCTQDIVMFLVVMLCNQNYIRNPYLVAKLVEVMFMTNPSVQPRTQKFFEMIENHPLSTKLLVPSLMKFYTDVEHTGATSEFYDKFTIRYHISTIFKSLWQNIAHHGTFMEEFNSGKQFVRYINMLINDTTFLLDESLESLKRIHEVQEEMKNKEQWDQLPRDQQQARQSQLAQDERVSRSYLALATETVDMFHLLTKQVQKPFLRPELGPRLAAMLNFNLQQLCGPKCRDLKVENPEKYGFEPKKLLDQLTDIYLQLDCARFAKAIADDQRSYSKELFEEVISKMRKAGIKSTIAIEKFKLLAEKVEEIVAKNARAEIDYSDAPDEFRDPLMDTLMTDPVRLPSGTVMDRSIILRHLLNSPTDAFNRQMLTESMLEPVPELKEQIQAWMREKQSSDH |  |  | neither of these methods resulted in delayed axonal degradation |
